Experimental data published in paper doi:10.1101/2025.07.31.667873 (bioRxiv, 2025).

Target: SF3B5 (human (endogenous in K562), UniProt Q9BWJ5 1-86)
Assay: cryo-EM structure

B1: TAF6L (natural protein)
chain: MSEREERRFVEIPRESVRLMAESTGLELSDEVAALLAEDVCYRLREATQNSSQFMKHTKRRKLTVEDFNRALRWSSVEAVCGYGSQEALPMRPAREGELYFPEDREVNLVELALATNIPKGCAETAVRVHVSYLDGKGNLAPQGSVPSAVSSLTDDLLKYYHQVTRAVLGDDPQLMKVALQDLQTNSKIGALLPYFVYVVSGVKSVSHDLEQLHRLLQVARSLFRNPHLCLGPYVRCLVGSVLYCVLEPLAASINPLNDHWTLRDGAALLLSHIFWTHGDLVSGLYQHILLSLQKILADPVRPLCCHYGAVVGLHALGWKAVERVLYPHLSTYWTNLQAVLDDYSVSNAQVKADGHKVYGAILVAVERLLKMKAQAAEPNRGGPGGRGCRRLDDLPWDSLLFQESSSGGGAEPSFGSGLPLPPGGAGPEDPSLSVTLADIYRELYAFFGDSLATRFGTGQPAPTAPRPPGDKKEPAAAPDSVRKMPQLTASAIVSPHGDESPRGSGGGGPASASGPAASESRPLPRVHRARGAPRQQGPGTGTRDVFQKSRFAPRGAPHFRFIIAGRQAGRRCRGRLFQTAFPAPYGPSPASRYVQKLPMIGRTSRPARRWALSDYSLYLPL
- binding result: binds
